Data on 2 molecules can be found in US20110009597A1, “RECOMBINANT GANODERMA LUCIDIUM IMMUNOMODULATORY PROTEIN (rLZ-8) AND USES THEREOF” (priority 2008, published 2011).

Assay [1] has as its system Human Promyelocytic Leukemia NB4 Cells. As to the kind of experiment: Killing effect of rLZ-8 on NB4 cells (MTT, OD570nm). As to conditions: As2O3 10 μg ml^−1, 48 h. The class given is cell-based. The method, then: After filtration and degerming, we prepared 8 concentrations using IMDM culture medium which are respectively 0.78 μg·ml^−1, 1.56 μg·ml^−1, 3.125 μg·ml^−1, 6.25 μg·ml^−1, 12.5 μg·ml^−1, 25 μg·ml^−1, 50 μg·ml^−1, 100 μg·ml^−1.
On 96-orifice culture medium plate, the pilot orifice plus NB4 tumor cells 0.1 ml and rLZ-8 0.1 ml, rLZ-8 concentrates from low to high; negative control group plus NB4 tumor cells and culture medium of 0.1 ml respectively; positive drug control group arsenic trioxide As2O3; make six-aperture multipunches for each group. Placing in 37° C., 5% CO2 incubator 48 h, adding MTT15 μl (5 mg ml^−1) prior to the termination of 4 h, after the termination of cell culture by adding 100 μl 0.1 mol L^−1 hydrochloric acid isopropyl alcohol, testing on the enzyme-linked immunosorbent OD570nm values.

Assay [2] deals with Human Chronic Myelogenous Leukemia K562 Cells. The experiment in a line: Lethal effect of rLZ-8 on K562 cells (MTT, OD570nm). In kind it is cell-based. Conditions: As2O3 10 μg ml^−1, 48 h. Here is the method:
After sterilization of rLZ-8, we prepared 6 concentrations using IMDM culture medium, which are respectively 3.125 μg·ml^−1, 6.25 μb·ml^−1, 12.5 μg·ml^−, 25 μg·ml^−1, 50 μg·ml^−1, 100 μg·ml^−1.
On 96-orifice culture plate, the pilot aperture plus K562 tumor cells 0.1 ml and rLZ-8 0.1 ml, rLZ-8 concentrations from low to high; negative control group plus K562 tumor cells and culture medium of the 0.1 ml respectively; positive drug control group arsenic trioxide As2O3; make six-aperture multipunches for each group. Placing in 37° C., 5% CO2 incubator 48 h, adding MTT15 μl (5 mg ml^−1) prior to the termination of 4 h, after the termination of cell culture by adding 100 μl 0.1 mol L^−1 hydrochloric acid isopropyl alcohol, testing OD values570nm on the enzyme immunosorbent detector.

Another assay concerns HL-60. The experiment in a line: Annexin V-FITC flow cytometry, apoptosis of HL-60. The class given is cell-based. Conditions: HL-60, positive drug group, 24 h, Annexin V/PI. The method, then:
(§1) FACS Calibur flow cytometry, U.S. Becton-Dickinson.Coompany. NB4, HL-60. rLZ-8 is prepared with IMDM culture medium containing 2% FCS into the preparation of 0.1 μg·ml^−1, 0.5 μg·ml^−1, 2.5 μg·ml^−1, arsenic trioxide (As2O3) 0.5 μg·ml^−1 AnnexinV-FITC kit: combining buffer solution 4×; Propidium iodide solution (PI), 20 μg·ml−1, 0.2 ml; recombinant human Annexin V/FITC, 0.1 ml.
(§2) Establish NB4 normal control group, positive drug group (As2O3 0.5 μg·ml^−1), protein low-dose group (0.1 μg·ml^−1), medium-dose group (0.5 μg·ml^−1), high-dose group, (2.5 μg·ml^−1); establish HL-60 normal control group, protein low-dose group (0.1 μg·ml^−1), medium-dose group (0.5 μg·ml^−1), high-dose group, (2.5 μg·ml^−1).
(§3) Mix NB4 and HL-60 cell into 24-orifice plate respectively, 1 ml/hole supply rLZ-8 in different concentrates, set 3-orifice multipunches for each group. Put them in 37° C., 5% CO2 incubator for 24 h, collect the cells of each concentrate, washes the cells twice with pre-cooled PBS 4° C., with 250 μl binding buffer solution re-suspending cells and regulates the cell density to 1×10^6/ml, taking out 100 μl to 5 ml streaming tube, and add 5 μl Annexin V/FITC and 10 μl 20 μg·ml^−1 PI solution, after mixing put it in room temperature and lucifuged hatching 15 min, add 400 μl PBS by flow cytometry analysis.

Another assay concerns NB4. As to the kind of experiment: Annexin V-FITC flow cytometry, apoptosis of NB4. In kind it is cell-based. As to conditions: NB4, As2O3 0.5 μg·ml^−1, 24 h, Annexin V/PI. The method, then:
as §1, §2, §3
Background: Flow cytometry measures light scatter and fluorescence of single cells or particles in a stream.

Assay [3] has as its system WBC. The experiment in a line: Cyclophosphamide low-leucocyte mice model, WBC. In kind it is in vivo. Also on record: unit not given here. As to conditions: Genlei Scimax 3.2 μg·kg−1. The method, then: rLZ-8 preparation of sterile saline. Divide them into 5 μg·kg^−1, 2.5 μg√kg^−1, 1.25 μg·kg^−1, 0.62 μg·kg^−1 dose groups.
Genlei™ Scimax™ [Recombinant human granulocyte colony-stimulating factor injection (rhG-CSF)], production lot: 20060403; 75 μg/vial is prepared with sterile normal saline into the preparation of 3.2 μg·kg^−1, 0.2 ml/vial.
Cyclophosphamide (CP) for injection (the production lot number 050216; 200 mg/vial) is prepared with sterile normal saline into the preparation of 12.5 mg·kg^−1, 0.2 ml/vial.
Normal control group, several protein dose groups, positive control group (Genlei™ Scimax™).
(§4) Excluding the normal control group (given same normal saline), each group of mice were given tail vein injection of cyclophosphamide, 1.25 μg·kg^−1, 0.2 ml/vial, for 3 consecutive days. On 3rd day, rat tail venous blood sampling, sent to Jilin University First Hospital laboratory, cell analyze the number of WBC. After successful modeling, they were given to the above groups respective dose of rLZ-8 and positive drugs (Genlei™ Scimax™) treatment, the normal control group and CP groups were given same normal saline, on the 3rd, 7th and 14th day of the treatment to draw venous blood from mice tail respectively, sent to Jilin University First Hospital testing the numbers of WBC. Compare WBC changes before and after the treatment for analysis of drug efficacy.

For the next assay, the system named is spleen. The experiment in a line: Colony forming unit-spleen and spleen index in radiation model of mice. As to conditions: Genlei Scimax 3.2 μg·kg^−1. The class given is in vivo. The method, then:
(§5) rLZ-8 preparation of sterile saline. Divide them into 5 ∞g·kg^−1, 2.5 μg·kg^−1, 1.25 μg·kg^−1, 0.62 μg·kg^−1 dose groups. 0.2 ml/vial.
(§6) Genlei™ Scimax™ [Recombinant human granulocyte colony-stimulating factor injection (rhG-CSF)], production lot: 20060403; 150m/vial is prepared with sterile normal saline into the preparation of 3.2 μg·kg^−1, 0.2 ml/vial.
(§7) The mice were irradiated by 7.5 Gy γ-ray (180 mV, 15 mA) and then divided into seven groups (n=10): (A) negative control; (B) 5 μg·kg−1 dose; (C) 2.5 μg·kg−1 dose; (D) 1.25 μg·kg−1 dose; (E) 0.62 μg·kg−1 dose; (F) positive control (Genlei™ Scimax™); (G) model group. Together with modeling, mice in each group were administered with Genlei™ Scimax™ and rLZ-8 for 9 days, drew blood from tail, tested the number of WBC, weight spleen, calculated index of spleen.

The test system of assay [4] is WBC. As to the kind of experiment: Treatment of radiation leucopenia model of mice, WBC. In kind it is in vivo. Also on record: unit not given here. As to conditions: Genlei Scimax 3.2 μg·kg^−1; 7.5 Gy γ-ray. The method, then: as §5, §6, §7
Assay [5] has as its system WBC. As to the kind of experiment: Prevention of radiation leucopenia model of mice, WBC. In kind it is in vivo. Set-up: unit not given here. Conditions: Genlei Scimax 3.2 μg. The method, then: rLZ-8 preparation of sterile saline. Divide them into 5 μg·kg^−1, 2.5 μg·kg^−1, 1.25 μg·kg^−1, 0.62 μg·kg^−1 dose groups. 0.2 ml/vial.
Genlei™ Scimax™ [Recombinant human granulocyte colony-stimulating factor injection (rhG-CSF)], production lot: 20060403; 150 μg/vial is prepared with sterile normal saline into the preparation of 3.2 μg·kg^−1, 0.2 ml/vial.
The mice were irradiated by 7.5 Gy γ-ray (180 mV, 15 mA) and then divided into seven groups (n=10): (A) negative control; (B) 5 μg·kg−1 dose; (C) 2.5 μg·kg−1 dose; (D) 1.25 μg·kg−1 dose; (E) 0.62 μg·kg−1 dose; (F) positive control (Genlei™ Scimax™); (G) model group. Before modeling 5 days, mice in each group were administered with Genlei™ Scimax™ and rLZ-8 for 5 days, on the 5th day, mice were radiated, for 5 days, and on the 7th day, drew blood from tail, tested the number of WBC, weight spleen, calculated index of spleen.

In assay [6] the test system is WBC. The experiment in a line: Cyclophosphamide low-leucocyte rat model, WBC. In kind it is in vivo, rats. Set-up: unit not given here. Conditions: Genlei Scimax 9.45 μg·kg−1. Here is the method:
rLZ-8 preparation of sterile saline. Divide them into 20 μg·kg^−1, 10 μg·kg^−1, 5 μg·kg^−1, 2.5 μg·kg^−1, 1.25 μg·kg^−1, 0.625 μg·kg^−1, 0.31 μg·kg^−1 dose groups.
Genlei™ Scimax™ [Recombinant human granulocyte colony-stimulating factor injection (rhG-CSF)], production lot: 20060403; 75 μg/vial is prepared with sterile normal saline into the preparation of 9.45 μg·ml^−1, 0.1 ml/vial.
Cyclophosphamide (CP), the production lot number 050216; 200 mg/vial is prepared with sterile normal saline into the preparation of 20 mg·ml^−1, 0.1 ml/vial, namely, 49 mg·kg^−1.
Normal control group, protein low-dose group, protein medium-dose group, protein high-dose group, positive control group (Genlei™ Scimax™)
as §4, with “rats” for “mice”, “20 mg·ml^−1, 0.1” for “1.25 μg·kg^−1, 0.2”

Take “arsenic trioxide [As2O3, reference compound]”: the results for the “Growth inhibition rate (%)” value in [1] and in [2] were 72% and 78.2%, respectively. The values for the OD570 nm in assay [1] and in assay [2] were 0.33 ± 0.01 and 0.22 ± 0.03, respectively. In addition, the values for the Apoptosis rate in the assay on HL-60 and with NB4 were 39.7% and 23.4%, respectively.

B1: Genlei ™ Scimax ™: Recombinant human granulocyte colony-stimulating factor injection (rhG-CSF) (protein, UniProt P09919 31-207, looked up)
Granulocyte …: TPLGPASSLPQSFLLKCLEQVRKIQGDGAALQEKLVSECATYKLCHPEELVLLGHSLGIPWAPLSSCPSQALQLAGCLSQLHSGLFLYQGLLQALEGISPELGPTLDTLQLDVADFATTIWQQMEELGMAPALQPTQGAMPAFASAFQRRAGGVLVASHLQSFLEVSYRVLRHLAQP
As for B1, in the assay with WBC [3], the “WBC, 3rdday of medication” value turned out to be 5.5 ± 0.12; the “WBC, 7thday of medication” value was determined as 22.7 ± 0.12; the “WBC, 14thday of medication” value is 13.0 ± 0.19. Moreover, in the assay with spleen, the “colony forming unit-spleen number” value is 6.0 ± 0.11, the growth rate is given as 26% and the “index (spleen)” value is given as 0.20 ± 0.10. Also, in the assay with WBC [4], the “WBC, 5th day” value is given as 0.68 ± 0.35; the “WBC, 7th day” value turned out to be 0.58 ± 0.35; the “WBC, 9th day” value is reported as 0.80 ± 0.11. In addition, the “WBC, 5th day (rLZ-8)” value in the assay on WBC [5] (5th day of administration before radiation) amounted to 21.8 ± 0.35. Besides, in the assay with WBC [5] (after 7.5 Gy γ-ray), the “WBC, 5th day” value is listed as 0.26 ± 0.20 and the “WBC, 7th day” value was 0.22 ± 0.12. In the assay on WBC [6], the “WBC, 3rdday of medication” value came out at 1.4 ± 0.11; the “WBC, 7thday of medication” value is 13.1 ± 0.21; the “WBC, 14thday of medication” value came out at 10.3 ± 0.14.
